Laboratory results taken from US20080175935A1, “Method to Treat Skin Conditions with Narcissus Tazetta Bulb Extract” (NuSkin International, Inc., priority 2004, published 2008).

Tested on: arNOX
Assay: arNOX assay: ferricytochrome c reduction (superoxide production) in sera
Assay type: biochemical, human
Details: for Rate of reduction of ferricytochrome c, +Proteinase K: pooled serum
From the text: Reduction of ferric cytochrome c by superoxide was employed as a standard measure of superoxide formation (Mayo, L. A. and Cumutte, J. (1990) Meth. Enzyme. 186, 567-575. 7. Butler, J, Koppenol, W. H. and Margollash, E. (1982) J. Biol. Chem. 257, 10747).
Assays of ferric cytochrome c reduction in sera compared 53 samples from young (20 to 40 y) and 65 samples from aged (80 to 100) individuals. […]
Measurement of arNOX activity based on ferricytochrome c reduction as a measure of superoxide production were taken. The rate of reduction of ferricytochrome c was determined from the increase in absorbance at 550 nm with 540 nm as reference. This is a widely accepted method when coupled to superoxide dismutase inhibition for the measurement of superoxide generation. The assay consists of 150 μl (2 mg/ml) of oxidized ferricytochrome c solution and 150 μl serum or 40 μl buffy coats in PBSG buffer (8.06 g NaCl, 0.2 g KCl, 0.18 g Na2HPO4, 0.26 g KH2PO4, 0.13 g CaCl2, 0.1 g MgCl2, 1.35 g glucose dissolved in 1000 ml deionized water, adjusted to pH 7.4, filtered and stored at 4° C.). Rates were determined using a SLM Aminco DW-2000 spectrophotometer (Milton Roy, Rochester, N.Y., USA) in the dual wave length mode of operation with continuous measurements over 1 min every 1.5 min. After 45 min, test compound was added and the reaction was continued for 45 min. A millimolar extinction coefficient of 19.1 cm^−1 was used for reduced ferricytochrome c. (D. M. Morré, F. Guo and D. J. Morré, 2003, Mol. Cell. Biochem. 254: […]).

- Rate of reduction of ferricytochrome c, +Proteinase K (35-45 males): 0.27 ± 0.16 nmoles min^−1 mi serum^−1
- Rate of reduction of ferricytochrome c, +Proteinase K (75-85 females): 1.0 ± 0.18 nmoles min^−1 mi serum^−1
- Rate of reduction of ferricytochrome c, +Proteinase K (75-85 males): 0.72 ± 0.14 nmoles min^−1 mi serum^−1
- Rate of reduction of ferricytochrome c, +Proteinase K (<35 y females): 0.26 ± 0.17 nmoles min^−1 mi serum^−1
- Rate of reduction of ferricytochrome c, +Proteinase K (>90 females): 0.94 ± 0.24 nmoles min^−1 mi serum^−1
- change in the rate of arNOX following proteinase K digestion (sera): no significant decrease
- Superoxide production (reduction of ferricytochrome c), without superoxide dismutase (sera of aged (80-98 y) individuals, after proteinase K, n = 10): 0.6 ± 0.2 Nmoles/min/mi/sera
B1: Proteinase K: protease used to digest sera (protein, UniProt P06873 106-384, looked up)
Proteinase K: AAQTNAPWGLARISSTSPGTSTYYYDESAGQGSCVYVIDTGIEASHPEFEGRAQMVKTYYYSSRDGNGHGTHCAGTVGSRTYGVAKKTQLFGVKVLDDNGSGQYSTIIAGMDFVASDKNNRNCPKGVVASLSLGGGYSSSVNSAAARLQSSGVMVAVAAGNNNADARNYSPASEPSVCTVGASDRYDRRSSFSNYGSVLDIFGPGTSILSTWIGGSTRSISGTSMATPHVAGLAAYLMTLGKTTAASACRYIADTANKGDLSNIPFGTVNLLAYNNYQA
